This passage reports median Abeta FITC-A signal results from US20140051084A1.

Assay [1] addresses Abeta1-42. The assay is described as follows: intracellular flow cytometry of THP-1 cells, isotype control stain (background level). On the technique in general: Flow cytometry measures light scatter and fluorescence of single cells or particles in a stream.
Assay [2] addresses Abeta1-42. In words: intracellular flow cytometry of monocytes/macrophages from patient and control, isotype control stain (background level).

Chain of Abeta1-42 (peptide, as listed by the source): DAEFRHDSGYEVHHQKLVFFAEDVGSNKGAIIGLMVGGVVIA

Turning to “isotype control antibodies (Mouse IgG1 and IgG2b) (antibody)”, the median Abeta FITC-A signal with Abeta1-42 [1] and in the assay with Abeta1-42 [2] was 102 each time.
